According to the supplement of paper PMC7125110:
± gives the standard error. For part of these data: This sample holds only a part of the variants without activity.

B1: glmS ribozyme (parent)
chain: AUAAAAGCGCCAGAACUACAGAAAUGUAGUUGACGAGGAGGAGGUUUAUCGAAUUUUCGGCGGAUGCCUCCAAA

Key:
Settings in all cases: with glucosamine-6-phosphate
glucosamine-6-phosphate [1] = variants of: B1; assay: kcat; higher = faster cleavage; RNA array
Summary of the method: (§1)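 Sequenced MiSeq chips were the platform: E. coli RNA polymerase transcribed barcoded ribozyme variants on them in situ, and a hybridised Cy3 probe tracked these at 37 °C. After glucosamine-6-phosphate (40 μM to 10 mM) in HEPES/KCl/Mg(OAc)2 buffer was flowed in, tiles were imaged over ~14 h. Signals normalised to baseline and to non-cleaving reference variants were reduced to per-tile medians and fit to one- or two-exponential decays to obtain kobs. kcat and KM were derived through weighted Michaelis–Menten fits across concentrations.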

glucosamine-6-phosphate [2] = variants of: B1; assay: self-cleavage kobs at 10000 uM GlcN6P; higher = faster cleavage; RNA array
Summary of the method: as §1

glucosamine-6-phosphate [3] = variants of: B1; assay: self-cleavage kobs at 40 uM GlcN6P; higher = faster cleavage; RNA array
Summary of the method: as §1

glucosamine-6-phosphate [4] = variants of: B1; assay: self-cleavage kobs at 2500 uM GlcN6P; higher = faster cleavage; RNA array
Summary of the method: as §1

glucosamine-6-phosphate [5] = variants of: B1; assay: KM; higher = weaker cofactor use; RNA array
Summary of the method: as §1

glucosamine-6-phosphate [6] = variants of: B1; assay: self-cleavage kobs at 640 uM GlcN6P; higher = faster cleavage; RNA array
Summary of the method: as §1

glucosamine-6-phosphate [7] = variants of: B1; assay: self-cleavage kobs at 160 uM GlcN6P; higher = faster cleavage; RNA array
Summary of the method: as §1

Variant | kcat (glucosamine-6-phosphate [1]) [s⁻¹] | self-cleavage kobs at 10000 uM GlcN6P (glucosamine-6-phosphate [2]) [s⁻¹] | self-cleavage kobs at 40 uM GlcN6P (glucosamine-6-phosphate [3]) [s⁻¹] | self-cleavage kobs at 2500 uM GlcN6P (glucosamine-6-phosphate [4]) [s⁻¹] | KM (glucosamine-6-phosphate [5]) [µM] | self-cleavage kobs at 640 uM GlcN6P (glucosamine-6-phosphate [6]) [s⁻¹] | self-cleavage kobs at 160 uM GlcN6P (glucosamine-6-phosphate [7]) [s⁻¹]
G9A U54C | 0.000246 ± 5.5e-05 | 3.34e-05 ± 1.3e-05 |  |  |  |  | 
C16G C58U | 3.48e-05 ± 3.2e-06 | 3.22e-05 ± 5.6e-06 | < 1e-05 | 3.89e-05 ± 9.2e-06 |  |  | 
G29U U30A | 0.000337 ± 3.2e-05 | 0.000278 ± 4e-05 |  | 0.000198 ± 3.2e-05 | 1900 ± 380 | 8.73e-05 ± 1.5e-05 | 
G40C U45A | 0.00147 ± 0.00022 | 0.00131 ± 0.00019 | 7.94e-05 ± 9.2e-06 | 0.00123 ± 0.00018 | 823 ± 200 | 0.000631 ± 7.8e-05 | 0.000183 ± 3.5e-05
A33G U69A | 3.15e-05 ± 1.4e-05 |  |  |  |  |  | 4.13e-05 ± 1.5e-05
A15C U45C | 0.000613 ± 8.6e-05 | 0.000409 ± 7.5e-05 |  | 0.000176 ± 3.7e-05 | 5480 ± 1200 | 6.81e-05 ± 1.6e-05 | 
G29C U47A | 0.00173 ± 0.00071 | 0.00158 ± 0.0002 | 4.95e-05 ± 1.1e-05 | 0.000579 ± 8.4e-05 |  | 0.000293 ± 3.8e-05 | 7.89e-05 ± 1.6e-05
A6G C10A | < 1e-05 | < 1e-05 | < 1e-05 |  |  |  | 
U69C | 0.00361 ± 0.00043 |  | 0.000631 ± 3.9e-05 | 0.00383 ± 0.00039 | 201 ± 40 | 0.00268 ± 0.0002 | 0.00145 ± 0.00011
U30A U55C | 0.0088 ± 0.0027 | 0.00647 ± 0.00073 | 0.000194 ± 3.2e-05 | 0.00471 ± 0.0012 | 3470 ± 1500 | 0.00129 ± 0.00024 | 0.000315 ± 5.6e-05
A48G C50A G63A | < 1e-05 | < 1e-05 |  |  |  |  | < 1e-05
A52G C70U | 0.00261 ± 0.00024 | 0.00194 ± 0.00018 | 2.96e-05 ± 5.4e-06 | 0.000878 ± 0.00015 | 3870 ± 600 | 0.00037 ± 6.1e-05 | 0.000108 ± 3.7e-05
G13U U65A | 0.000112 ± 6.4e-06 | 9.77e-05 ± 1.8e-05 |  | 7.82e-05 ± 1.7e-05 | 1260 ± 270 |  | 
G51A U69A | 1.6e-05 ± 2.9e-06 |  |  |  |  |  | 
U47C U49C | < 1e-05 |  |  |  |  | < 1e-05 | 
G13U C70G | 4.04e-05 ± 3e-06 | 3.71e-05 ± 6.7e-06 |  | 3.94e-05 ± 6.3e-06 |  | 4.63e-05 ± 9.7e-06 | 
C16U A52C | 1.88e-05 ± 3.1e-06 |  |  |  |  |  | 
G41C U49G | < 1e-05 |  |  |  |  |  | < 1e-05

Variant | kcat (glucosamine-6-phosphate [1]) [s⁻¹] | self-cleavage kobs at 10000 uM GlcN6P (glucosamine-6-phosphate [2]) [s⁻¹] | self-cleavage kobs at 40 uM GlcN6P (glucosamine-6-phosphate [3]) [s⁻¹] | self-cleavage kobs at 2500 uM GlcN6P (glucosamine-6-phosphate [4]) [s⁻¹] | KM (glucosamine-6-phosphate [5]) [µM] | self-cleavage kobs at 640 uM GlcN6P (glucosamine-6-phosphate [6]) [s⁻¹] | self-cleavage kobs at 160 uM GlcN6P (glucosamine-6-phosphate [7]) [s⁻¹]
G32A C58U | 6.81e-05 ± 1.1e-05 | 6.46e-05 ± 1.3e-05 | < 1e-05 | 4.13e-05 ± 1.1e-05 |  | 3.37e-05 ± 1.6e-05 | 
G37U G51C | < 1e-05 | < 1e-05 |  |  |  |  | 
A48G U54C | 0.000123 ± 1.5e-05 | 0.000104 ± 1.3e-05 |  | 0.000101 ± 1.8e-05 | 1310 ± 500 | 3.59e-05 ± 1.1e-05 | 
U54C | 0.0582 ± 0.0055 | 0.051 ± 0.0026 | 0.00101 ± 1.9e-05 | 0.0274 ± 0.0017 | 2290 ± 240 | 0.0121 ± 0.0007 | 0.00345 ± 0.00027
C16G U46A | 0.000198 ± 1.7e-05 | 0.000213 ± 4.4e-05 |  | 0.000146 ± 2.2e-05 | 676 ± 180 | 9.94e-05 ± 2.2e-05 | 4.2e-05 ± 2e-05
A53U U57G | 0.000158 ± 2.7e-05 | 0.000115 ± 1.4e-05 |  | 5.56e-05 ± 1e-05 | 4010 ± 1600 | 3.61e-05 ± 1.4e-05 | 
A14G G32C A53U | 0.000218 ± 7.2e-05 | 0.000144 ± 2.8e-05 |  | 6.01e-05 ± 1.8e-05 |  | 4.08e-05 ± 2e-05 | 
U31C C50U | < 1e-05 |  |  |  |  |  | 
U30A G41A | 0.000441 ± 3.4e-05 | 0.000265 ± 5.7e-05 |  | 0.000127 ± 2.3e-05 | 6390 ± 730 | 3.92e-05 ± 1.2e-05 | 
A6U G40U | 2.6e-05 ± 7e-07 | 1.8e-05 ± 7.6e-06 |  |  | 4450 ± 330 |  | 
A53G G60A | 2.61e-05 ± 9.4e-06 | 1.88e-05 ± 8.7e-06 |  | 3.68e-05 ± 1e-05 |  |  | 
U49A C68G | 2.5e-05 ± 5.3e-06 |  |  |  |  |  | 
G32C C67G | 2.22e-05 ± 2.6e-06 | 1.85e-05 ± 8.6e-06 |  |  | 2060 ± 980 |  | 
G29U G66U | 0.000182 ± 1.7e-05 | 0.000156 ± 1.6e-05 |  | 0.000151 ± 2.6e-05 | 1300 ± 360 | 5.65e-05 ± 1.1e-05 | 
A53G U55C | 0.0183 ± 0.0057 | 0.0167 ± 0.0032 | 0.000669 ± 7.9e-05 | 0.0106 ± 0.0024 | 1230 ± 510 | 0.00872 ± 0.0013 | 0.00157 ± 0.00027
A39U A64G | 0.031 ± 0.012 | 0.0327 ± 0.0047 | 0.000447 ± 5.6e-05 | 0.0101 ± 0.0015 |  | 0.00498 ± 0.0006 | 0.00134 ± 0.00017
A14G A33C | 0.000125 ± 5.4e-06 | 0.000108 ± 1.2e-05 |  | 8.25e-05 ± 1.2e-05 | 1470 ± 220 | 3.41e-05 ± 1.4e-05 | 
